The results in this text go back to US20070128190A1.

The target of test [1] is GST-rat α2 I domain fusion protein (rat). The test can be described thus: SPR (Biacore 2000), antibody captured, GST-α2 I domain in solution. (In SPR one partner is held on a chip, and binding of the other changes the refractive index at the surface.)
Test [2] shares this target. Kind of test: Eu-TMC-2206 on immobilized GST-α2 I domain at 37 °C, Scatchard.
Test [3] deals with human platelet α2β1 integrin (immobilized on microtiter plates) (human) (UniProt P17301). The test can be described thus: competition with Eu-TMC-2206 on human platelet α2β1-coated plate.
human platelet α2β1 integrin (immobilized on microtiter plates) (human), sequence (P17301 30-1181 E534K limits assumed, chain 1 of 2): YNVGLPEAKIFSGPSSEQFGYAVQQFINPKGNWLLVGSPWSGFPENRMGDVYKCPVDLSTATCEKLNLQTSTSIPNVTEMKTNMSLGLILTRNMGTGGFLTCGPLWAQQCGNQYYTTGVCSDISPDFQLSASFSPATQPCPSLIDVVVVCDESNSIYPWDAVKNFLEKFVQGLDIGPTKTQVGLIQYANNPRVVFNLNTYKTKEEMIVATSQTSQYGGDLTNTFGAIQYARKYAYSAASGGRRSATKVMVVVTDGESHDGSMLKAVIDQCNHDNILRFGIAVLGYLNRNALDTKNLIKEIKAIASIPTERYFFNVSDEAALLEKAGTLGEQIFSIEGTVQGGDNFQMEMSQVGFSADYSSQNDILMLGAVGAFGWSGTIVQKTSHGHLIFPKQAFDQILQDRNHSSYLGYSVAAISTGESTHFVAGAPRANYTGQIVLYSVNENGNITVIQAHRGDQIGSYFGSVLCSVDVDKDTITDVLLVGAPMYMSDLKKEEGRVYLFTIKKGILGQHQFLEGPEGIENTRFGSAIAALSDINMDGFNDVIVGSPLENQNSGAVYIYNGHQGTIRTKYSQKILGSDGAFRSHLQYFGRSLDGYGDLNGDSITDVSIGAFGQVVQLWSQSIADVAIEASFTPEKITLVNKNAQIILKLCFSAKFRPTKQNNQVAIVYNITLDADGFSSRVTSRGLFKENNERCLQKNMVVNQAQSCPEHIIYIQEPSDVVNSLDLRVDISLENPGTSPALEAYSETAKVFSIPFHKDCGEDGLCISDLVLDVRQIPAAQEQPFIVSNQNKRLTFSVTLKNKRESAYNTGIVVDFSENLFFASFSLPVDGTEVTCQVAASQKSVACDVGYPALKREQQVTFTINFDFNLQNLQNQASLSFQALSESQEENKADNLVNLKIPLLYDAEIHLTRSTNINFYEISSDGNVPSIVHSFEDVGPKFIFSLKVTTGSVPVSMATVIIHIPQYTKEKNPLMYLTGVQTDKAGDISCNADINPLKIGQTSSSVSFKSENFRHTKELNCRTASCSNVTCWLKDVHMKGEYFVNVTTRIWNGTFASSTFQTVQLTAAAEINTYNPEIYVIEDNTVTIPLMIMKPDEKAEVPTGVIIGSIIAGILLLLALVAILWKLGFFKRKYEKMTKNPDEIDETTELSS
human platelet α2β1 integrin (immobilized on microtiter plates) (human), sequence (chain, as listed by the source limits assumed, chain 2 of 2): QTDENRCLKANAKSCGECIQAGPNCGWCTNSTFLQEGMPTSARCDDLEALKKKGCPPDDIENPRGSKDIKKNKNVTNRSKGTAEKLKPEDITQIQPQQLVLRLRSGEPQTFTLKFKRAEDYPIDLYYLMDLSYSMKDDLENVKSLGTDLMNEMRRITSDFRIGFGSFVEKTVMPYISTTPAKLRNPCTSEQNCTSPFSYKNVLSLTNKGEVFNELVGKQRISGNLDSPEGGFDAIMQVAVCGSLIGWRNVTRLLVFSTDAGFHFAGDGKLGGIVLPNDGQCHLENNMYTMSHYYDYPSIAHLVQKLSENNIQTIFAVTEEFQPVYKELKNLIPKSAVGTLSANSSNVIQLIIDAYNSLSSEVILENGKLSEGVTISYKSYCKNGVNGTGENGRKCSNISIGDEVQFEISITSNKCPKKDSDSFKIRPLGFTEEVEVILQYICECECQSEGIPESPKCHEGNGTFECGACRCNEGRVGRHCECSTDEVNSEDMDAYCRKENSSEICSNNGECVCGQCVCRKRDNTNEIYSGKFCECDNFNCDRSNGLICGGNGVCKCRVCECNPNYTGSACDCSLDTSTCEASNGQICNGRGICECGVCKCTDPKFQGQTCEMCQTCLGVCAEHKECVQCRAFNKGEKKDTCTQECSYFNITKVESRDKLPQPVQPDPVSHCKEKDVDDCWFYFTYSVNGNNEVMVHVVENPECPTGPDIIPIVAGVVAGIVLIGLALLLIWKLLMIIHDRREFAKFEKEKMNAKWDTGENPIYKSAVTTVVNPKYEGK

B1: TMC-2206 (antibody, mouse IgG1, V domains shown)
VH: QVQLKESGPGLVAPSQSLSITCTVSGFSLTNYGIHWVRQPPGKGLEWLGVIWARGFTNYNSALMSRLIITKDNSQSQVFLKMNSLQPDDSATYFCARANDGVYYAMDYWGQGTSVTVSS
VL: QFVLTQSPAFLSASPGEKVTMTCSANSSVNYIHWYQQKSGTSPKKWIYDTSKLASGVPVRFSGSGSGTSYSLTISSMETEDAATYYCQQWTTNPLTFGAGTRVELK
By Kd is commonly meant the concentration at which binding is half-saturated. Low readings indicate a tighter complex, high ones a looser complex. By koff is commonly meant a measure of how fast the partners let go of each other. Read a low koff as slow dissociation. The kon is the second-order rate constant of association. Read a low kon as slow association. In test [1], B1 came in with a Kd of 2 nM, a koff of 0.00082 s⁻¹ and a kon of 420000 M⁻¹ s⁻¹. In test [2], this molecule gave a Kd of 1.3 nM and a fold decrease compared to human α2 I domain of 6 fold.

B2: TMC-2206 VH D100A variant antibody (antibody, part only; not given: Light chain, constant regions, V domains shown, part only)
VH: QVQLKESGPGLVAPSQSLSITCTVSGFSLTNYGIHWVRQPPGKGLEWLGVIWARGFTNYNSALMSRLIITKDNSQSQVFLKMNSLQPDDSATYFCARANAGVYYAMDYWGQGTSVTVSS
On to B2, for which the fold shift in potency relative to the mouse-human chimeric TMC-2206 antibody in test [3] was greater than 1600 fold.
